Reference: patent US20240067711A1 (MEDYTOX, published 2024)

Tests used:
[1] = biological target: T1, recombinant human VEGF165 (human, UniProt P15692-4 27-191); assay: cell-based or functional assay
[2] = biological target: T1, recombinant human VEGF165; assay: Octet red96E BLI, human VEGF165 amine-coupled on AR2G sensor, hexamer as analyte (0.0625-4 nM), 30° C.
Procedure: (§1) Affinity for VEGF was determined as follows. Octet red96E was used, and human VEGF immobilized on the biosensor AR2G was interacted with AAA0308, AAA0589, AAA0592, and AAA0600 used as analytes, and binding and dissociation values thereof were compared and measured. As human VEGF, recombinant human VEGF165 (Sinobiological company) was used, and VEGF was immobilized on the AR2G sensor chip by an amine coupling method. At this time, the amount of VEGF used was 10 μg/ml, and the degree of coating was confirmed using a wavelength of 5 nm.
(§2) During measurement, the rotation speed was set to 100, and the temperature was measured at 30° C.
(§3) The concentration of the sample was adjusted using a kinetic buffer (Molecular Device Co.). The antibody solution of each concentration was used as a binding phase for 5 minutes, and then switched to a kinetic buffer to form a dissociation phase for 30 minutes.

[3] = biological target: human VEGF (hVEGF), isoform not stated (human, UniProt P15692-4 27-191, limits assumed); assay: ELISA on coated hVEGF (500 ng/ml), detection with anti-hIgG-Fc HRP, A450
Procedure: ELISA was performed to confirm the binding ability to VEGF. First, 100 μl of hVEGF was added to an immunoplate at a concentration of 500 ng/ml and caused to react at room temperature for 1 hour. 2% skim milk was dissolved in PBST, and then, 200 μl thereof was added onto the VEGF-coated wells and the reaction was caused to occur at room temperature for 2 hours. After the reaction, the well was washed three times using 300 μl of PBST, and then, Hz2, AAA0289, AAA0308, AAA0589, AAA0592, and AAA0600, which were purified above, were diluted starting from at a concentration of 100 ng/ml by two-fold to make a total of 11 samples. The samples were placed on the VEGF-coated well and the reaction was caused to occur at room temperature for 20 minutes. After the reaction, the well was washed three times using 300 μl of PBST, and then, anti-hIgG-Fc HRP (1:3000, Thermo) was added thereto at 100 μl/well and then reacted for 30 minutes. Then, the well was washed three times as described above, and the TMB (BioFx company) solution was added thereto at 100 μl/well to develop color at room temperature for 5 minutes. After the color development, 2N sulfuric acid was added at 50 μl/well to stop the color development, and the absorbance was measured at 450 nm, and results are shown in FIGS. 4A and 4B.

[4] = biological target: T1, recombinant human VEGF165; assay: cell-based or functional assay; remark: listed apart in the source
[5] = biological target: T2, FcγRI (R&D system company, 1257-Fc) (UniProt P12314 16-288); assay: Octet; FcγRI loaded on anti-penta-His biosensor, antibody 100 nM as analyte
[6] = biological target: T1, recombinant human VEGF165; assay: Octet red96E BLI, human VEGF165 amine-coupled on AR2G sensor, hexamer as analyte (0.0625-0.6 nM), 30° C.
Procedure: as §1, §2, §3

[7] = biological target: T2, FcγRI (R&D system company, 1257-Fc); assay: Octet; FcγRI loaded on anti-penta-His biosensor, antibody 100 nM as analyte, 2 min association and 2 min dissociation
Procedure: Binding evaluation for FcγR I, II, and III was performed as follows. Octet red96E was used, and […] FcγRI(R&D system company, 1257-Fc), […] FcγRII(R&D system company, 1597-CF), and […] FcγRIII(R&D system company, […]) were each loaded on the anti-pentia his biosensor, and a signal of about 5 nm was confirmed. In order to identify the reactivity of AAA0589 and AAA0592 to FcγRI, FcγRII, and FcγRIII, binding force was measured using an antibody concentration of 100 nM as an analyte. During measurement, rpm was set to 100, and the temperature was measured at 30° C. Samples were diluted using kinetic buffer (Molecular Device Co.). The antibody solution of each concentration was used as an association phase for 2 minutes, and then converted to a kinetic buffer to form a dissociation phase for 2 minutes.

T2 sequence (P12314 16-288 limits assumed): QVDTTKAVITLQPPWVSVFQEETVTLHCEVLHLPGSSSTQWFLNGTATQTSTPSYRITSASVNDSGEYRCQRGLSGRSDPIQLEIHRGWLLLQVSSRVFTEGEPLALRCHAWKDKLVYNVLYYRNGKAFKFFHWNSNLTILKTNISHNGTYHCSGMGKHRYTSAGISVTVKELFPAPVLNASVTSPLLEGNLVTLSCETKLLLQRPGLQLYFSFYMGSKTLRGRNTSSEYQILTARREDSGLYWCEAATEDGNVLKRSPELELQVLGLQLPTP
T1 sequence (P15692 other isoform, or with tags, fused parts or gaps limits assumed): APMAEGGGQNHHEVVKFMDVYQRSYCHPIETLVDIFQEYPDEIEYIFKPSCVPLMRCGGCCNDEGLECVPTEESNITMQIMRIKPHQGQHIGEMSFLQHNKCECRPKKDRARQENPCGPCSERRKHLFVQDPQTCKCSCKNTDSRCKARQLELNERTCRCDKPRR
human VEGF (hVEGF), isoform not stated, sequence (P15692 other isoform, or with tags, fused parts or gaps limits assumed): as above

B1: Lu007-F hexamer AAA0592 (antibody, human IgG1, kappa, L234A L235A)
heavy: EVQLVESGGGLVQPGGSLRLSCAASGYDFTHYGMNWIRQAPGKGLEWVGWINTYTGEPTYAADFKRRFTFSLDTSKSTVYLQMNSLRAEDTAVYYCAKYPHYYGTSHWYFDVWGQGTLVTVSSASTKGPSVFPLAPSSKSTSGGTAALGCLVKDYFPEPVTVSWNSGALTSGVHTFPAVLQSSGLYSLSSVVTVPSSSLGTQTYICNVNHKPSNTKVDKKVEPKSCDKTHTCPPCPAPEAAGGPSVFLFPPKPKDTLMISRTPEVTCVVVDVSHEDPEVKFNWYVDGVEVHNAKTKPREEQYNSTYRVVSVLTVCLQDWLNGKEYKCKVSNKALPAGIEKTISKAKGQPREPQVYTLPPSRDELTKNQVSLTCLVKGFYPSDIAVEWESNGQPENNYKTTPPVLDSDGSFFLYSKLTVDKSRWQQGNVFSCSVMHEALHNHYTQKSLSLSPGKPTLYNVSLVMSDTAGTCY
light: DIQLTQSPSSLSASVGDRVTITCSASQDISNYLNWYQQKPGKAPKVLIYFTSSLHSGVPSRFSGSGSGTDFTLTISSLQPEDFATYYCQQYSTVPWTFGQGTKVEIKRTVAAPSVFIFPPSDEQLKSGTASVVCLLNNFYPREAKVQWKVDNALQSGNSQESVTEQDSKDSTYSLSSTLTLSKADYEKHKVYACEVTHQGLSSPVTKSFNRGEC
notes: also called Lu007 hexamer AAA0592
IC50 of inhibition of the VEGF-induced calcium increase in HUVEC cells [1]: 0.2 nM
Kd [2]: < 0.001 nM
koff [2]: < 1e-07 s⁻¹
kon [2]: 666000 M⁻¹ s⁻¹
EC50 (read off the curve) [3]: ~0.09 nM
IC50 (read off the curve) [4]: ~0.3 nM
binding result [5]: no binding (tested: 100 nM)

B2: Hz2 humanized anti-VEGF antibody (monomer) (antibody, V domains shown)
VH: EVQLVESGGGLVQPGGSLRLSCAVSGIDLNRYSLTWIRQAPGKGLEWVAIVGGSGVTYYANWAKGRFTISRDDSKNTLYLQMNSLRAEDTAVYYCARGSDRSAYAPDIWGQGTLVTVSS
VL: DIQLTQSPSSLSASVGDRVTITCQSSQSIYSNNYLAWYQQKPGKAPKLLLYQASKLASGVPSRFSGSGSGTDFTLTISSLQPEDFATYYCLGVYDDDADNAFGQGTKVEIKR
EC50 (read off the curve) [3]: ~0.02 nM

B3: Aflibercept CL kappa hexamer AAA0600 (Fc fusion)
chain: SDTGRPFVEMYSEIPEIIHMTEGRELVIPCRVTSPNITVTLKKFPLDTLIPDGKRIIWDSRKGFIISNATYKEIGLLTCEATVNGHLYKTNYLTHRQTNTIIDVVLSPSHGIELSVGEKLVLNCTARTELNVGIDFNWEYPSSKHQHKKLVNRDLKTQSGSEMKKFLSTLTIDGVTRSDQGLYTCAASSGLMTKKNSTFVRVHEKTVAAPRTVAAPSVFIFPPSDEQLKSGTASVVCLLNNFYPREAKVQWKVDNALQSGNSQESVTEQDSKDSTYSLSSTLTLSKADYEKHKVYACEVTHQGLSSPVTKSFNRGESDKTHTCPPCPAPEAAGGPSVFLFPPKPKDTLMISRTPEVTCVVVDVSHEDPEVKFNWYVDGVEVHNAKTKPREEQYNSTYRVVSVLTVCLQDWLNGKEYKCKVSNKALPAGIEKTISKAKGQPREPQVYTLPPSRDELTKNQVSLTCLVKGFYPSDIAVEWESNGQPENNYKTTPPVLDSDGSFFLYSKLTVDKSRWQQGNVFSCSVMHHALHNHYTQKSLSLSPGKPTLYNVSLVMSDTAGTCY
IC50 of inhibition of the VEGF-induced calcium increase in HUVEC cells [1]: 0.2 nM
Kd [6]: 0.00203 nM
EC50 (read off the curve) [3]: ~0.04 nM
IC50 (read off the curve) [4]: ~0.2 nM

B4: Hz2-F hexamer AAA0589 (antibody, human IgG1, kappa, L234A L235A)
heavy: EVQLVESGGGLVQPGGSLRLSCAVSGIDLNRYSLTWIRQAPGKGLEWVAIVGGSGVTYYANWAKGRFTISRDDSKNTLYLQMNSLRAEDTAVYYCARGSDRSAYAPDIWGQGTLVTVSSASTKGPSVFPLAPSSKSTSGGTAALGCLVKDYFPEPVTVSWNSGALTSGVHTFPAVLQSSGLYSLSSVVTVPSSSLGTQTYICNVNHKPSNTKVDKKVEPKSCDKTHTCPPCPAPEAAGGPSVFLFPPKPKDTLMISRTPEVTCVVVDVSHEDPEVKFNWYVDGVEVHNAKTKPREEQYNSTYRVVSVLTVCLQDWLNGKEYKCKVSNKALPAGIEKTISKAKGQPREPQVYTLPPSRDELTKNQVSLTCLVKGFYPSDIAVEWESNGQPENNYKTTPPVLDSDGSFFLYSKLTVDKSRWQQGNVFSCSVMHHALHNHYTQKSLSLSPGKPTLYNVSLVMSDTAGTCY
light: DIQLTQSPSSLSASVGDRVTITCQSSQSIYSNNYLAWYQQKPGKAPKLLLYQASKLASGVPSRFSGSGSGTDFTLTISSLQPEDFATYYCLGVYDDDADNAFGQGTKVEIKRTVAAPSVFIFPPSDEQLKSGTASVVCLLNNFYPREAKVQWKVDNALQSGNSQESVTEQDSKDSTYSLSSTLTLSKADYEKHKVYACEVTHQGLSSPVTKSFNRGEC
notes: also called hexameric antibody AAA0589
IC50 of inhibition of the VEGF-induced calcium increase in HUVEC cells [1]: 0.2 nM
Kd [2]: < 0.001 nM
koff [2]: < 1e-07 s⁻¹
kon [2]: 208000 M⁻¹ s⁻¹
EC50 (read off the curve) [3]: ~0.04 nM
IC50 (read off the curve) [4]: ~0.2 nM
binding result [5]: no binding (tested: 100 nM)

B5: Omal013 (positive control antibody) (antibody, human IgG1, kappa)
heavy: not shown
light: B4 light
notes: also called positive control group
binding result [7]: binds
